According to the nanobody polyreactivity screen of Harvey et al. (2022):

Test: yeast display, Sf9 membrane polyspecificity reagent, FACS + sequencing; frameworks hold sequencing errors
Outline: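 In a synthetic yeast display library (Saccharomyces cerevisiae BJ5465), nanobody expression was induced with galactose for 36–48 hours. FACS gates were set low and high (top ~1%) using anti-HA fluorescence for expression and streptavidin fluorescence for binding of the Sf9 membrane reagent. Each polyreactivity label is drawn from the gate of origin.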
In the case of “QVQLVESGGGLVPAGGSLRLSCAASGSTFPVYAMGWYRPAPGTERELVAAINSGVSTNYADSVKGRFTMSRDNANTTVYLQRNSLKPEDTAVYYCNTSYVGYPDLGINYEFDYWGQGTQVTVSS”, the “polyreactivity (PSR sort gate)” value is reported as “low polyreactivity”. With “QVQLVESGGGLVQAGGSLRLSCAASGRIFPYYTMGWYRPAPGKERELVAAISRRGSSTYYADSVKGRFTISRDNAKNTVYLQMNSLKPEDTAVYFCAADRGGYTRTGEYDYWGQGTQVTVSS” the “polyreactivity (PSR sort gate)” value was “high polyreactivity”. With “QVQLVESGGGLVQAGGSLRLSCAASGRTFYVYAMGWYRQAPGKERELVAAISADGGRTYYADSVKGRFTISRDNAKNTVYLQMNSLKPEDTAVYYCAAWRHTLGDYWGQGTQVNVSS” the “polyreactivity (PSR sort gate)” value was “high polyreactivity”. For “QVQLVESGGGLVQAGGSLRLSCAASGFTLEFYAMGWYRQAPGKERELVARITTSGGSTRYADSVKGRFTISRDNAKNTVYLQMNSLKPEDTAVYYCPARGYGYRNVQTYGYWGQGTQVTVSS”, the “polyreactivity (PSR sort gate)” value was “high polyreactivity”. For “QVQLVESGGGLVQAGGSLRLSCAASGSTFQGYAMGWYRQAPGNERELVAAISRRGGSTYYADSVKGRFTISRDNAKNTVYFQKNSLKPEDTAVYYCNAVVRTIVLYYWGQGTQVTVSS”, the “polyreactivity (PSR sort gate)” value was “high polyreactivity”. With “QVQLVESGGGLVQAGGSLRLSCAASGSIFNGYAMGWYRQAPGKERELVAAISRRGGSTYYADSVKGRFTISRVNAKNTVYLQMISLKPEDTAVYYCAADPRRPLSPQLSDYWGQGTQVTVSS” the “polyreactivity (PSR sort gate)” value was “high polyreactivity”. In the case of “QVQLVESGGGLVQAGGSLRLSCAASGSTFLRYAMGWYRQAPGKERELVATISRCDDGTYYADSVKGRFKISRDNEKNTVFLQMNSLKPEDNAVYYCDARSWYLYYYWGQGTQVTVSS”, the “polyreactivity (PSR sort gate)” value is reported as “low polyreactivity”. For “QVQLVESGGGLVQAGGSLRLSFAASGRTFEKYAMGWYRQAPGKERELVAAISGSGGSTFYADSVKGRFTISRDIAKYTVYLQMISLKPEDSAVYYCAADSRSHPGDYWGQGTQVTVSS”, the “polyreactivity (PSR sort gate)” value was “low polyreactivity”. In the case of “QVQLVESGGGLVQAGGSLRLSCAASVRTFYIYAMGWYRQAPGKERELDAAITWSGGTTYYADSVKGRFTISRDIAINTVYLQMNSLKPEDTAVYYCAADRYGFYLESYYCGQGTQVTVSS”, the “polyreactivity (PSR sort gate)” value is reported as “low polyreactivity”. With “QVQLVESGGGLVQAGGSLRLSCAASGRTFGIYAMGWYRQATGKERELVAGITWTGGSTYYADSVKGRFTISRDNAKNTVYLQMNSLKPEDTAVYYCAADFYVLQFYGLDYGYWGQGTQVTVSS” the “polyreactivity (PSR sort gate)” value was “low polyreactivity”. In the case of “QVQLVESGGGLVQAGGSLRLICAASGYIFATYAMGWYRQAPGKERELVAAITSTGSTYYADSVKGRFTISRDNAKNTVYLQMNSLKPEDTAVYYCAAVSGYRARYYLYYYWGQGTQVTVSS”, the “polyreactivity (PSR sort gate)” value is reported as “high polyreactivity”. In the case of “QVQLVESGGGLVQAGGSLRLSCAASGFIYGSNAMGWYRQAPGKERELVAAISRSGGSTYYADSVKGRFTISRDNAKNTVYLQMNSLKPEDTAVYYCNVDLWTFVYSWWSYDYWGQGTQVTVSS”, the “polyreactivity (PSR sort gate)” value is reported as “high polyreactivity”. In the case of “QVQLVESGGGLVQAGGSLRLSCAASGFIFVLYSMGWYRQAPGKERELVAGITGSTDTYYADSVKGRFTISRDNAKNTVYLQMNSLKPEDTAVYYCAAGRLRIWYDSWGQGTQVTVSS”, the “polyreactivity (PSR sort gate)” value is reported as “low polyreactivity”. With “QVQLVESGGGLVQAGGSLRLSCAASGRTFRYYSMGWYRQAPGKERELVAAITGSGARTYYADSVKGRFTISRDNAKNTVYLQMNSLKPEDTAVYYCAADSLFYDDRYDYWGQGTQVTVSS” the “polyreactivity (PSR sort gate)” value was “high polyreactivity”. With “QVQLVESGGGLVQAGGSLRLSCAASGGIFSTYTMRWYRQAPGKERELVAAITTGNSTYYADSVKGRFTISRDNAKNTVYLQMNSLKPEDTAVYYCAAFAASRDYYRRLFHDGYDYWGQGTQVTVSS” the “polyreactivity (PSR sort gate)” value was “low polyreactivity”. For “QVQLVESGGGLVQAGGSLRLSCAASGFIFGYYAMGWYRQAPGKERELVAAISSGGTTTYYADSVKGRFTISRDNAKNTVYLQMNSLKPEDTAVYYCAKVSQRRVDNSDYDYWGQGTQVTVSS”, the “polyreactivity (PSR sort gate)” value was “high polyreactivity”. In the case of “QVQLVESGGGLVQAGGSLRLSCASSGFTLYANAMGGYRQAPGKERELVADISESGSSTSYADSVKGRFTISRDNAKNTVYLQMKSLKPEDTAVYYCYDYWVQGTQVTVSS”, the “polyreactivity (PSR sort gate)” value is reported as “low polyreactivity”. With “QVHLVESGGGLVQAGGSLRLSCAASGIIFVLYTMGWYRQAPGKERELVATINWGGGNTYYADSLKGRFTISRDNAKNTVYLQMNSLKPEDTAVYYCAAAYTWYGYSQAYYYWGQGTQVTVSS” the “polyreactivity (PSR sort gate)” value was “low polyreactivity”. With “QVQLVESGGGLVQAGGSLRISCAASGFTFYIYAMGWYRQAPGKERELVAAISARGGSTYYADSVKGRFTISRDNAKNTVYLQMNSLKPEDTAVYYCNALYNYAEIYGRGYWGLGTQVTVSS” the “polyreactivity (PSR sort gate)” value was “high polyreactivity”. With “QVQLVDSGGGLVQAGGSLRLSCPASGSIIPYNALGWYRQAPGKERELVATISSGGSTNYADSVKGRFTISRDNAKNTVYFQMNSLKPEDTAVYYCAADVIVFYYAPNYWGDIEYGYWGQGTQVTVSS” the “polyreactivity (PSR sort gate)” value was “low polyreactivity”. For “QVQLVESGGGLVQAGGSLRLSCAASGSTIGRYAMGWYRQAPGKERELVASIRSSGSTYYADSVKGRFTISRDNAKNTVYLQMNSLKPEDTAVYYCNRGVYYGSRYNYWGQGTQVTVSS”, the “polyreactivity (PSR sort gate)” value was “high polyreactivity”. For “QVQLVESGGGLVQAGGSLRLSCAASGFIFGTYAMGWYRQAPGKERELVAAISVGGGSTYYADSVKGRFTISRDNAKNTVYLQMNSLKPEDTAVYYCAAVQLYQKHQITYVAHEYWGQGTQVTVSS”, the “polyreactivity (PSR sort gate)” value was “low polyreactivity”. For “QVQLVESGGGLVQAGGSLRLSCAASGSTNVVNAMGRYRQPPGKERELVAAITYSGGSTYYADSVKGRFTISRDNAKNTVYLQQNSLKPEDTAVYYCNTTLRDSRQYVDRAPYTRYDYWGQGTQVTVSS”, the “polyreactivity (PSR sort gate)” value was “low polyreactivity”. For “QVQLVESGGGLVQAGGSLRLSCAASGFTFQYYVMGWYRQAPGKERELVAAISWSGGSTYYADSVKGRFSISRDNAKNTVYLQMNSLKPEDTAVYYCAAEYDEFLVRFGVWYWFDYWGQGTQVTVSS”, the “polyreactivity (PSR sort gate)” value was “high polyreactivity”. For “QVQLVESGGGLVQAGGILRLSCAASGLTFSRYDMGWYRPEPGKERELVAAITWSGSSTYYADSVKGRFTLSRDNAKNTVYLQMNSLKRVDTAVYYCAARYGYSRGPYYRSYYWGQGTQVTVSS”, the “polyreactivity (PSR sort gate)” value was “high polyreactivity”. For “QVQLVESGGGLVQAGGSLRLSCAASGGTFWIYAMGWYRKAPGKERELVAGITTSGATTYYADSVKGRFTISRDNAKNTVYLQMNSLKPEDTAVYYCAADEYYRYEYWGQGTQVTVSS”, the “polyreactivity (PSR sort gate)” value was “low polyreactivity”. For “QVQLVESGGGLVQAGGSLRLSCAASGRIFYGYAMGWYRQAPGKERELVAAITRGVSTYYADSVKGRFTISRDNAKNTVYLQMNSLKPEDTAVYYCAKDRRVRMDSWGQGTQVTVSS”, the “polyreactivity (PSR sort gate)” value was “low polyreactivity”. In the case of “QVQHVESGGGLVQAGGSLRLSCAASGSTFWYNAMGWYRQAPGKERELVAAISYSGGRTYYADSVKERFTISRDNAKNTVYLQMNSLKPEDTAVYYCNAASRYGGDYWGQGTQVTVSS”, the “polyreactivity (PSR sort gate)” value is reported as “low polyreactivity”. With “QFQLVESGGGLDQAGGSLRLSCAASGSIFYYNAMGWYRQAPGKERELVAAIDLNDGITYYADSVKGRFTISRDNAKNTVYLQMNSLKPEDTAVYYCAADSYYFLYDSWGQGTQVTVSS” the “polyreactivity (PSR sort gate)” value was “high polyreactivity”. With “QVQLVESGGGLVQAGGSLRLSCAASGRILYYYAMGWYRQAPGKERELVAAITSGGSTYADSVKGRFTISRDNAKNTVYLQMNSLKPEDTAVYYCNARPVYGSRFYSAVRMEYWGQGTQVTVSS” the “polyreactivity (PSR sort gate)” value was “low polyreactivity”. With “QVQHVDTGGGLVQAGGSLRLSCAASGSIFGRYAMGWSRQAPGKERELVASINWNSGSTYYADSVKGRFTISRDNAKYTVYLQMNSLKPEDTAVYYCAAAALGYYGYRGFDYWGQGTQVTVSS” the “polyreactivity (PSR sort gate)” value was “low polyreactivity”. In the case of “QVQLVESGGGLVQAGGSLRLSCAASGRTLRIYAMGWYRQAPGKERELVAAITSSGRTNYADSVKGRFTISRDNAKNTVYLQMNSLKPEDTAVYYCAAVTPAVNYFRAASGYYYWGQGTQVTVSS”, the “polyreactivity (PSR sort gate)” value is reported as “low polyreactivity”. For “QVQLVESGGGLVQAGGSLRLSCAASGSTFSYNAMGWYRQAPGKERELVAAISRGGITNYADSVKGRFTISRDNAKNTVYLQMNSLKPEDTAVYYCAVRHVWPWQGYDYWGQGTQVTVSS”, the “polyreactivity (PSR sort gate)” value was “low polyreactivity”. With “QVQLVESGGGLVQAGGSLRLSCAASVSIFIYYAMGWYRQAQGKERELVAAISYSDGDTYYADSVKGRFTISRDNAKNTVYLQMNSLKPEDTAVYYCAAEVPQYYDVGWEDYCGQGTQVTVSS” the “polyreactivity (PSR sort gate)” value was “high polyreactivity”. With “QVQLVESGGGLVQAGGSLRLSCAASGFTLGWYAMGWYRQAPGKERELVASINWDGGSTYYADSVKGRFTISRDNAKNTVYLQMNSLKPEDTAVYYCNAVNKWFPKVGYNYWGQGTQVTVSS” the “polyreactivity (PSR sort gate)” value was “high polyreactivity”. For “QVQLVESGGGLVQAGGSLRLSCAASGRIFSYYVMGWSRQAPGKERELVAAISYRGGGTYYADSVKGRFTISRDNAKNTVYLQMNSLKPEDTAVYYCNADTYSNTYRAYDYWGQGTQVTVSS”, the “polyreactivity (PSR sort gate)” value was “low polyreactivity”. For “QVQLVESAGGLVQAGGSLRLSCSASGLTFVPNAMGWYRQAPGKERELVATISSSGGRTTYADSVKGRFTISRDKAKNTVYLQMNSLKPEDTAVYYCADQGYWTGYDYWGQGTQVTVSS”, the “polyreactivity (PSR sort gate)” value was “high polyreactivity”. With “QVQLVESGGGLVQAGGSLRLSCAASGRTFDAYAMGWYRQAPGKERELVATITSGGGTYYADSVKGRFTISRDNAKNTVYLQMNSLKPEDTAVYYCKKRYVVSRKYDYWGQGTQVTVSS” the “polyreactivity (PSR sort gate)” value was “low polyreactivity”. In the case of “QEQLQESGGGLVQAGGSLCLSCAASGTIFFDGDMGWYRQAPGKEREFVAAINPGGSAYYADSVKGRLPLAAITHTVYLQMNSLKPEDTAVYYCAAKLFDVYGYYYWGQGTHVTVSS”, the “polyreactivity (PSR sort gate)” value is reported as “low polyreactivity”. With “QVQLVDSGGGLVQAGGSLRLSCAASGFTFSYYVMGWYRQAPGKERELVAAITSSGGSTYYADSVKGRFTISRDNAKNTVSLQMISRNPEDTAVYYCNALVLSSEYGYWGLGTQVTVSS” the “polyreactivity (PSR sort gate)” value was “high polyreactivity”. With “QVQLVESGGGLVQAGGSLRLSCAASGSIFTVNAMGWYRQAPGKERELVAAIDGSSGSTNYADSVKGRFTISRDNAKNTVYLQMNSLKPEDTAVYYCAADWSYEYGYWGQGTQVTVSS” the “polyreactivity (PSR sort gate)” value was “low polyreactivity”. With “QVQLVESGGGLVQAGGSLRLICAASGLIFGRYDMGWYRQAPGKERELVAAISGGTTNYADSVKGRFTISRDNAKNTVYLEMNSLKPEDTAVYYCNAGPSQPGGIFYEYDYWGQGTQVTVSS” the “polyreactivity (PSR sort gate)” value was “low polyreactivity”. With “QVQLVDSGGGLVHAGGSLRLSCAASGRTFFINTMGWYRQPPGKEREFVAAITWSAGRTYYADSVKGRITISRDNAKNTVYLQMISLKPEDTAVYYCAAALDGHTFPFYYWGQGTQVTVSS” the “polyreactivity (PSR sort gate)” value was “low polyreactivity”.
